Results as given in patent publication CN102050878A (NAT ENGINEERING RES CT OF ANTIBODY MEDICINE SHANGHAI CO LTD, dated 2011).

Target: T1, 人CD20 (Raji细胞表面) (human, UniProt P11836 1-297)
T1 construct: whole, on cells; The target is native on the B lymphoma lines Raji (and Daudi); No recombinant CD20 was used; also called 高表达CD20的Raji细胞
T1 sequence (looked up): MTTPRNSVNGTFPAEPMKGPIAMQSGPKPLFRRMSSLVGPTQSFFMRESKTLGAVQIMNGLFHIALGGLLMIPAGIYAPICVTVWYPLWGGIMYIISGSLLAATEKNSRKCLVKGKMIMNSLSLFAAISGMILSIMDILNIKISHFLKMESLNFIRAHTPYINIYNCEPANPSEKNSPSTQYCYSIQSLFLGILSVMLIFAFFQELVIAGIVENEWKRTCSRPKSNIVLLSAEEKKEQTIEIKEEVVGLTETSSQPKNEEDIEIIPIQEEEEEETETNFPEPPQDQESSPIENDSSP
Test: in vitro antigen binding assay, flow cytometry on Raji cells

binding result: binds
B1: 抗人CD20人源化抗体hu3D9 (hu3D9Hb/hu3D9Lb) (antibody, human IgG1, kappa, V domains shown)
VH: EVQLVESGGGLVQPGGSLRLSCAASGYTFTNYWMQWVRQAPGQGLEWISAIYPGDGDTRYTQKFKGRATLSADKSKNTAYLQMNSLRAEDTAVYYCAREGAYGYDDGMDYWGQGTLVTVSS
VL: DIVLTQSPSSLSASVGDRVTITCRASQSIRNNLHWYQQKPGKAPKLLIKYASQSISGVPSRFSGSGSGTDFTLTISSLQPEDFATYYCQQSNSWPLTFGQGTKVEIKR
notes: Humanised antibody with 12 mouse framework residues kept
